Positions count from the first letter of the chain named. Square brackets hold non-standard residues; d marks the D form. Ends that are not written are not given here.
Tests used:
PapB = assay: Enzymatic reactions of msPapA peptides with PapB (thioether crosslinking, U/HPLC-MS readout); format: biochemical; settings: for substrate conversion: after 300 s; for extent of conversion to crosslinked peptide by PapB (in words): incubation with PapB, SAM and reductant, MS isotopic envelope; for substrate converted to crosslinked product: assessed from MS isotopic envelope after PapB
Protocol: Assays were conducted in a Coy Laboratories anaerobic chamber with 98% N2/2% H2 atmosphere at room temperature. All reactions contained 0.05 M PIPES·NaOH (pH 7.4), 2 mM DTT, 2.4 mM SAM (enzymatically synthesized and purified as previously described (deGruyter, J. N., et al. Biochem. 2017, 56 (30), 3863-3873)), ˜100-400 μM msPapA variants (concentration determined by peptide dry weight or by spectroscopic analysis in the case of Y19W), and […]-10 μM PapB. Either dithionite (dT) or flavodoxin (FldA), flavodoxin reductase (FPR) and NADPH were used to reduce PapB. For the assays that used chemical reductant, the total concentration was 2 mM dT. For the assays that used the biological reducing system, the mixtures contained 25 μM FldA, 2 μM FPR and 2 mM NADPH. The total volume of the reactions ranged from 0.1 mL for initial screenings to 0.5 mL for MS/MS Collision Induced Dissociation (CID) fragmentation experiments described below. Control reactions in the absence of dT, SAM and PapB were also conducted. Reactions were initiated with the addition of PapB and quenched at times ranging from 15 s to 2 h by the addition of 10% of the reaction volume of 30% (w/v) trichloroacetic acid (TCA, ACS grade). The samples were centrifuged at 16,000×g for 10 min in a microcentrifuge to pellet the precipitated PapB.
The assays were analyzed using either a Vanquish UHPLC with a diode-array detector connected to a Q-Exactive mass spectrometer or an Ultimate 3000 HPLC with a diode-array detector connected to a LTQ OrbiTrap XL mass spectrometer. Each was operated in positive ion mode, the FT analyzer was set to 100,000 resolution, 1 microscan, and 200 ms maximum injection time. Xcalibur software was used to analyze data. A 20 μL aliquot was injected onto a Hypersil GOLD C18 column (2.1 mm×150 mm, 1.9 μm particle size) (Thermo Fisher) pre-equilibrated in 0.1% (v/v) LC-MS Optima TFA (Fisher in LC-MS Optima water (Fisher). Chromatographic steps were carried out at 0.2 mL/min with buffer A containing 0.1% (v/v) TFA in Optima water and buffer B containing Optima grade acetonitrile with 0.1% (v/v) TFA. The separation consisted of washing with 100% A from 0 to 3 min, followed by a linear gradient from 100% to 0% A from 3 to 6 min, washing with 0% A from 6 to 10 min, and reequilibration with 100% A from 10 to 14 min. […]

Leader-AAAASACDAADA = tested on: T1, Leader-AAAASACDAADA
T1 sequence: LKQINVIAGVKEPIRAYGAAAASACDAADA

Leader-AAACSAADAADA = tested on: T2, Leader-AAACSAADAADA
T2 sequence: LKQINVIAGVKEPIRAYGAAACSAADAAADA

Leader-AAACSACDAADA = tested on: T3, Leader-AAACSACDAADA
T3 sequence: T1 sequence with A22C

Leader-AAACSANDACSANDA = tested on: T4, Leader-AAACSANDACSANDA
T4 sequence: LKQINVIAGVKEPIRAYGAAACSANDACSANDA

Leader-AAACSANDA = tested on: T5, Leader-AAACSANDA
T5 sequence: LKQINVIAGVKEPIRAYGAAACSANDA

Leader-CDSNNAANA = tested on: T6, Leader-CDSNNAANA
T6 sequence: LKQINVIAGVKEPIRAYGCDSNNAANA

Leader-CSAAAANDA = tested on: T7, Leader-CSAAAANDA
T7 sequence: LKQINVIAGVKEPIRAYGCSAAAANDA

Leader-CSAAANDA = tested on: T8, Leader-CSAAANDA
T8 sequence: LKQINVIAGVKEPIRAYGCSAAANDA

Leader-CSAANDA = tested on: T9, Leader-CSAANDA
T9 sequence: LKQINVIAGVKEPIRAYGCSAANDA

Leader-CSDNNAAA = tested on: T10, Leader-CSDNNAAA
T10 sequence: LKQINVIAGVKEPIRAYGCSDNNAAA

Leader-CSNDAAA = tested on: T11, Leader-CSNDAAA
T11 sequence: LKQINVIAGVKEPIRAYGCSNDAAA

Leader-DSANCA = tested on: T12, Leader-DSANCA
T12 sequence: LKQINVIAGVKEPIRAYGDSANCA

Leader-DSAN^DCA = tested on: T13, Leader-DSAN^DCA
T13 sequence: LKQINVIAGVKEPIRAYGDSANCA

Leader-^DDSANCA = tested on: T14, Leader-^DDSANCA
T14 sequence: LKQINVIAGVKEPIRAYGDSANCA

Leader-^DDSAN^DCA = tested on: T15, Leader-^DDSAN^DCA
T15 sequence: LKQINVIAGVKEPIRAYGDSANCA

Y17W msPapA = tested on: T16, Y17W msPapA
T16 sequence: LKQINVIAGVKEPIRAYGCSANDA

leader-CSAN^DDA = tested on: T17, leader-CSAN^DDA
T17 sequence: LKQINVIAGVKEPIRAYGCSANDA

leader-^DCSANDA = tested on: T18, leader-^DCSANDA
T18 sequence: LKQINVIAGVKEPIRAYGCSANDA

leader-^DCSAN^DDA = tested on: T19, leader-^DCSAN^DDA
T19 sequence: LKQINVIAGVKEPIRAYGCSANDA

[1] = tested on: T20, minimal substrate PapA (msPapA)
T20 sequence: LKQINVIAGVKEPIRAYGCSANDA

Substance: LKQINVIAGVKEPIRAYGCSANDA [msPapA, reference compound]
- kinetics with dT relative to biological reducing system (PapB; 430 nM PapB, 191 μM peptide): roughly 3 fold
- substrate conversion (PapB; biological reducing system (FldA/FPR/NADPH)): 100%
- substrate conversion (PapB; chemical reducing system (dT)): 100%
- turnover number (approximation of kcat for PapB) (PapB; dithionite (dT) as reductant, 430 nM PapB, 191 μM peptide, linear portion of curve, FIG. 5 names Y17W msPapA): 7.4 ± 0.1 s⁻¹
- extent of conversion to crosslinked peptide by PapB (in words) (PapB): complete conversion

Substance: PapB
- thioether crosslinking (loss of 2 Da, MS) (Leader-AAAASACDAADA): all the peptides that were examined were efficiently crosslinked by the enzyme
- thioether crosslinking (loss of 2 Da, MS) (Leader-AAACSAADAADA): all the peptides that were examined were efficiently crosslinked by the enzyme
- thioether crosslinking (loss of 4 Da, MS) (Leader-AAACSACDAADA): all the peptides that were examined were efficiently crosslinked by the enzyme
- thioether crosslinking (loss of 4 Da, MS) (Leader-AAACSANDACSANDA): all the peptides that were examined were efficiently crosslinked by the enzyme
- thioether crosslinking (loss of 2 Da, MS) (Leader-AAACSANDA): all the peptides that were examined were efficiently crosslinked by the enzyme
- thioether crosslinking (loss of 2 Da, MS) (Leader-CDSNNAANA): CX0D (FIG. 8B) and CX6D (FIG. 8C) did not fully react--suggesting that PapB does not processes these motifs efficiently
- thioether crosslinking (loss of 2 Da, MS) (Leader-CSAAAANDA): CX0D (FIG. 8B) and CX6D (FIG. 8C) did not fully react--suggesting that PapB does not processes these motifs efficiently
- thioether crosslinking (loss of 2 Da, MS) (Leader-CSAAANDA): the reactions with 1-5 intervening residues appear to go to completion
- thioether crosslinking (loss of 2 Da, MS) (Leader-CSAANDA): the reactions with 1-5 intervening residues appear to go to completion
- thioether crosslinking (loss of 2 Da, MS) (Leader-CSDNNAAA): the reactions with 1-5 intervening residues appear to go to completion
- thioether crosslinking (loss of 2 Da, MS) (Leader-CSNDAAA): the reactions with 1-5 intervening residues appear to go to completion
- thioether crosslinking (MS) (Leader-DSANCA): we were unable to observe any crosslinked product with the transposed peptides, either with L- or D-amino acids
- thioether crosslinking (MS) (Leader-DSAN^DCA): we were unable to observe any crosslinked product with the transposed peptides, either with L- or D-amino acids
- thioether crosslinking (MS) (Leader-^DDSANCA): we were unable to observe any crosslinked product with the transposed peptides, either with L- or D-amino acids
- thioether crosslinking (MS) (Leader-^DDSAN^DCA): we were unable to observe any crosslinked product with the transposed peptides, either with L- or D-amino acids
- turnover number with dithionite (approximation of kcat) (Y17W msPapA): 7.4±0.1 s^-1 with dT
- turnover number with the biological reducing system FldA/FPR/NADPH (approximation of kcat) (Y17W msPapA): 2.6=0.2 s^-1 are estimated with the biological reducing system
- thioether crosslinking (loss of 2 Da, MS) (leader-CSAN^DDA): significant substrate turnover is observed as well, but the conversion is not complete
- thioether crosslinking (loss of 2 Da, MS) (leader-^DCSANDA): full conversion to the crosslinked peptide is seen, as evidenced by the loss of 2 Da
- substrate converted to crosslinked product (MS) (leader-^DCSAN^DDA): at least ˜15% of the substrate is converted to product
- thioether crosslinking (loss of 2 Da, HR-MS) [1]: complete conversion of msPapA to a singly crosslinked peptide is routinely observed using 0.1 nmol PapB and 20 mmol msPapA in 5 min
- thioether crosslinking (loss of 2 Da, MS) [1]: the reactions with 1-5 intervening residues appear to go to completion

Substance: LKQINVIAGVKEPIRAYGCDSNNAANA [CX0D]
- extent of conversion to crosslinked peptide by PapB (in words) (PapB): did not fully react

Substance: LKQINVIAGVKEPIRAYG^DCSANDA (LKQINVIAGVKEPIRAYG[dC]SANDA) [leader-^DCSANDA]
- extent of conversion to crosslinked peptide by PapB (in words) (PapB): full conversion

Substance: LKQINVIAGVKEPIRAYGPCSAN^DDA [leader-^DCSAN^DDA]
- substrate converted to crosslinked product (PapB): ≥ 15%
- extent of conversion to crosslinked peptide by PapB (in words) (PapB): processed inefficiently

Substance: LKQINVIAGVKEPIRAYGCSAAAANDA [CX6D]
- extent of conversion to crosslinked peptide by PapB (in words) (PapB): did not fully react

Substance: LKQINVIAGVKEPIRAYGENLYFQ^DFCF^DWKTET [octreotide analog]
- substrate converted to crosslinked product (PapB): ~75%

Substance: LKQINVIAGVKEPIRAYGCSAN^DDA [leader-CSAN^DDA]
- extent of conversion to crosslinked peptide by PapB (in words) (PapB): conversion is not complete

Reference: patent US20250376709A1, “PAPB AS A BIMOIETY-DEPENDENT THIOETHER INSTALLATION TOOL” (UNIVERSITY OF UTAH RESEARCH FOUNDATION, priority 2022, published 2025)
